Columns and labels:
hammerhead ribozyme = conditions: retina of nude mice, toyocamycin drug pellet under dorsal skin, ribozyme-based sensor; cited from earlier work
[1] = test system: luciferase reporter gene expression; assay: Luciferase reporter assay of tetracycline-aptamer polyA switch constructs with and without tc; format: cell-based, human
Excerpt: The general strategy for detecting and imaging proteins via modulation of polyA cleavage is critically dependent upon the highly efficient cleavage of the polyA signal at the 5′ UTR (FIG. 1). A first step was to test candidate polyA signals and associated upstream and downstream motifs that enable efficient polyA cleavage in cells. For testing polyA cleavage efficiency, a transient transfection assay involving a mammalian expression vector^49 was used with a GFP or luciferase reporter (merely as examples). Candidate polyA signal sequences were cloned at the 5′UTR of the reporter gene or transgene within the expression vector.

Molecule | induced luciferase reporter expression (hammerhead ribozyme) | induction (fold), ratio of luciferase activity with and without Tc ([1]; 5 μg/mL Tc) | induction (fold), ratio of luciferase activity with and without Tc ([1]; 15 μg/mL Tc)
N#Cc1cn([C@@H]2O[C@H](CO)[C@@H](O)[C@H]2O)c2ncnc(N)c12 [toyocamycin] | up to 180 fold |  | 
GP2SLGP2: two GP2 aptamers connected back to back (Helper and Center); SEQ ID NO: 59 (nucleic acid, Synthetic Primerr) GCTAGCCACACACACAAATCTGGGGAGGTGAAGAATACGACCACCTGCGTTTTATACTTTGTTAAAACATACCAGATCGAAAGATCTGGGGAGGTGAAGAATACGACCACCTAATAAAGTATAAAGTGCAAAACATACCAGATCTGTGTGTTGGTTTTTTGTGTGGAATTCCACACACACAAATCTGGGGAGGTGAAGAATACGACCACCTGCGTTTTATACTTTGTTAAAACATACCAGATCGAAAGATCTGGGGAGGTGAAGAATACGACCACCTAATAAAGTATAAAGTGCAAAACATACCAGATCTGTGTGTTGGTTTTTTGTGTGAACGGGGGAGGGGGAGGAAAGGGGGAGGGGGAGCGGCCGC |  | 70 fold | 104 fold
C12: GP2SLGP2 variant in stem/loop-II region, central stem equivalent length 20 bp; SEQ ID NO: 60 (nucleic acid, Synthetic Primer) CTGCAGCACACACACAAATCTGGGGAGGTGAAGAATACGACCACCTGCGTTTTATACTTTGTTAAAACATACCAGATCGAATTCGATCTGGGGAGGTGAAGAATACGACCACCTAATAAAGTATAAAGTGCAAAACATACCAGATCTGTGTGTTGGTTTTTTGTGTGGCTAGCCACACACACAAATCTGGGGAGGTGAAGAATACGACCACCTGCGTTTTATACTTTGTTAAAACATACCAGATCGAATTCGATCTGGGGAGGTGAAGAATACGACCACCTAATAAAGTATAAAGTGCAAAACATACCAGATCTGTGTGTTGGTTTTTTGTGTGAACGGGGGAGGGGGAGGAAAGGGGGAGGGGGAGCGGCCGC |  | 94 fold | 151 fold
D11A: GP2SLGP2 variant in stem/loop-II region; SEQ ID NO: 61 (nucleic acid, Synthetic Primer) GCTAGCGAATTGCACACACACAAATCTGGGGAGGTGAAGAATACGACCACCTGCGTTTTATACTTTGTTAAAACATACCATCCTAAGCCTAAGGCAAACGCTATGGTATGGATGGGGAGGTGAAGAATACGACCACCTAATAAAGTATAAAGTGCAAAACATACCAGATCTGTGTGTTGGTTTTTTGTGTGGAATTCCACACACACAAATCTGGGGAGGTGAAGAATACGACCACCTGCGTTTTATACTTTGTTAAAACATACCAGATCGAAAGATCTGGGGAGGTGAAGAATACGACCACCTAATAAAGTATAAAGTGCAAAACATACCAGATCTGTGTGTTGGTTTTTTGTGTGAACGGGGGAGGGGGAGGAAAGGGGGAGGGGGAGCGGCCGC |  | 84 fold | 127 fold
